According to patent US20240270874A1 (JIANGSU HENGRUI PHARMACEUTICALS, published 2024):

Target: human KLB&FGFR1c complex on cells (human, UniProt Q86Z14 1-1044; P11362 22-822)
Assay: cell-based or functional assay

Sequence of human KLB&FGFR1c complex on cells (P11362 22-822, one chain of several): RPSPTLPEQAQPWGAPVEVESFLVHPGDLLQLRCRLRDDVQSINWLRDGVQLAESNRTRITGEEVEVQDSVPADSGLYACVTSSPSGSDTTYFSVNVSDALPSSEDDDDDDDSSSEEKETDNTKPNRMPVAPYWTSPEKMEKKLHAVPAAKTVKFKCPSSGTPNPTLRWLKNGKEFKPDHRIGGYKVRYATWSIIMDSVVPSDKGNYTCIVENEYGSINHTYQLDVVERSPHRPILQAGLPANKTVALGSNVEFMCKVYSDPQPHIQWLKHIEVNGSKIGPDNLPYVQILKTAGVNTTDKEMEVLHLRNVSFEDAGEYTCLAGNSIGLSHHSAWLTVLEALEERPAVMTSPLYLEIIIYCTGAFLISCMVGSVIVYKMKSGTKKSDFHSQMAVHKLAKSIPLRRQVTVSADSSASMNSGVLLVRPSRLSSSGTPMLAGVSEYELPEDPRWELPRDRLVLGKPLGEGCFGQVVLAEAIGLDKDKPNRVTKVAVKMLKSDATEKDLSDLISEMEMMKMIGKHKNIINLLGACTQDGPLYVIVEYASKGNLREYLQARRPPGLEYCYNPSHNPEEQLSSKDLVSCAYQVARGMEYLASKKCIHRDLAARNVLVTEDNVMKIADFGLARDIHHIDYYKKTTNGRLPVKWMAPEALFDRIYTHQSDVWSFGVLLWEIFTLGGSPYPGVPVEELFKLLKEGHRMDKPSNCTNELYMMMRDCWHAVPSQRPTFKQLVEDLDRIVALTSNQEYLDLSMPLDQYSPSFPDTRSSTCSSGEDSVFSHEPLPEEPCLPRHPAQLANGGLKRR

Activation fold, GAL4-Elk1 luciferase reporter in CHOK1-hKLB&hFGFR1c cells: 14.3 fold
EC50 (nM), GAL4-Elk1 luciferase reporter in CHOK1-hKLB&hFGFR1c cells: 0.19 nM
B1: hAb99-13 (antibody, human IgG1, kappa, L234A L235A, V domains shown)
VH: EVQLVQSGAEVKKPGASVKVSCKASGYTFTNYGINWVRQAPGQRLEWMGYIYIGNVDIEYNAKFKGRVTITSDTSASTAYMELSSLRSEDTAVYYCARGRGLGHFDVWGQGTTVTVSS
VL: DIQMTQSPSSLSASVGDRVTITCRASKSISKFLAWFQQKPGKTNKLLIYSGSTLQSGVPSRFSGSGSGTDFTLTISSLQPEDFATYYCQQHNEYPWTFGGGTKVEIKR
notes: human IgG1 (L234A, L235A) / kappa
